T1: gAnkB aa. 1477-1792 (human, UniProt Q01484 1477-1792)
T1 sequence (looked up): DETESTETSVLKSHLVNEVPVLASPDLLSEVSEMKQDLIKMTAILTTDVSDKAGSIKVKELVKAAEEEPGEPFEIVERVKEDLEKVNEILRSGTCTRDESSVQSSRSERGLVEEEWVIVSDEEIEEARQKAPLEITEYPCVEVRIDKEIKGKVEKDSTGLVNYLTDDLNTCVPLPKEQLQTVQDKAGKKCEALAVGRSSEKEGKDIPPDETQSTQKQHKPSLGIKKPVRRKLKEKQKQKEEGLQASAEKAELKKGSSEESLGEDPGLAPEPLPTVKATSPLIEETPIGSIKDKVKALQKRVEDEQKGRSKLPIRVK

B1: ASAP1 SH3 domain (aa. 1083-1147) (domain or fragment, mouse, UniProt Q9QWY8 1083-1147, looked up)
chain: GKNKVRRVKTIYDCQADNDDELTFIEGEVIIVTGEEDQEWWIGHIEGQPERKGVFPVSFVHILSD
B2: mouse ASAP2-SH3 (aa. 896-958) recombinant protein (domain or fragment, UniProt Q7SIG6 896-958, looked up)
chain: SKPKRVKALYNCVADNPDELTFSEGDVIIVDGEEDQEWWIGHIDGEPSRKGAFPVSFVHFIAD

Experiments:
[1] = molecular target: B1; assay: ITC
[2] = molecular target: T1, gAnkB aa. 1477-1792; assay: ITC

With “Clasp1 (from UniProt Q7Z460 1-1538) (natural protein)” the Kd [1] was 8900 nM.

For GIKKPVRRKLKE (peptide, UniProt Q01484 1699-1710, looked up) [gAnkB peptide (aa. 1699-1710)], the Kd [1] was about 140 nM.

With GIKEPVRRKLKE (peptide, UniProt Q01484 1699-1710, looked up) [gAnkB peptide K1702E] the “fold weakening of binding against the wild-type gAnkB peptide” value [1] was about 120 fold.

For GIKKPVERKLKE (peptide, UniProt Q01484 1699-1710, looked up) [gAnkB peptide R1705E], the “fold weakening of binding against the wild-type gAnkB peptide” value [1] was about 125 fold.

In the case of GIKKGVRRKLKE (peptide, UniProt Q01484 1699-1710, looked up) [gAnkB peptide P1703G], the “fold decrease of affinity against the wild-type gAnkB peptide” value [1] is reported as about 3 fold.

With B1 the Kd [2] was about 140 nM.

Work on B2 yielded a Kd [2] of about 68 nM.

— paper doi:10.1101/2024.01.05.574302 (bioRxiv, 2024)
